As usually defined, the Kd is the concentration at which binding is half-saturated. Lower therefore signals a tighter complex.

The first experiment deals with 20S core particle purified from S. cerevisiae (S. cerevisiae (endogenous in yeast)) (UniProt P22141). The experiment is described as follows: peptidase-stimulation.
“recombinant base variant YA2 (pore-1 loop YA in Rpt2) (from UniProt P33299;P40327;P33298;P53549;P33297;Q01939;P38764;P32565;O13563) (complex)”: the Kd came to 0.138 µM.

The target of the next experiment is recombinant base variant NT2 (C-terminal tail of Rpt2 truncated) (S. cerevisiae) (UniProt P33299). The experiment is described as follows: ATPase-repression titration.
As for “20S core particle purified from S. cerevisiae (from UniProt P22141 1-198) (complex)”, the fold lower affinity than wild-type base was 1.3 fold.

A further experiment concerns the target recombinant base variant NT5 (C-terminal tail of Rpt5 truncated) (S. cerevisiae) (UniProt P33299). As to the kind of experiment: ATPase-repression titration.
For “20S core particle purified from S. cerevisiae (from UniProt P22141 1-198) (complex)”, the fold lower affinity than wild-type base stood at 5.6 fold.

The next experiment concerns the target 20S core particle purified from S. cerevisiae (S. cerevisiae (endogenous in yeast)) (UniProt P22141).
Assay: not given
For “recombinant base variant DN6 (pore-2 loop DN in Rpt6) (from UniProt P33299;P40327;P33298;P53549;P33297;Q01939;P38764;P32565;O13563) (complex)”, the peptidase stimulation, % of WT base was found to be 84 % WT.

With “recombinant base variant YA2 (pore-1 loop YA in Rpt2) (from UniProt P33299;P40327;P33298;P53549;P33297;Q01939;P38764;P32565;O13563) (complex)”, the peptidase stimulation, % of WT base was determined as 38 % WT.

“recombinant base variant DN4 (pore-2 loop DN in Rpt4) (from UniProt P33299;P40327;P33298;P53549;P33297;Q01939;P38764;P32565;O13563) (complex)” came in with a peptidase stimulation, % of WT base of 192 % WT.

“recombinant base variant EN2 (pore-2 loop EN in Rpt2) (from UniProt P33299;P40327;P33298;P53549;P33297;Q01939;P38764;P32565;O13563) (complex)”: the peptidase stimulation, % of WT base was 110 % WT.

In turn, “recombinant base variant KS6 (Walker-A KS in Rpt6) (from UniProt P33299;P40327;P33298;P53549;P33297;Q01939;P38764;P32565;O13563) (complex)” came in with a peptidase stimulation, % of WT base of 54 % WT.

As for “recombinant base variant KS5 (Walker-A KS in Rpt5) (from UniProt P33299;P40327;P33298;P53549;P33297;Q01939;P38764;P32565;O13563) (complex)”, the peptidase stimulation, % of WT base is 59 % WT.

“recombinant base variant NT5 (C-terminal tail of Rpt5 truncated) (from UniProt P33299;P40327;P33298;P53549;P33297;Q01939;P38764;P32565;O13563) (complex)” gave a peptidase stimulation, % of WT base of 7 % WT.

“recombinant base variant KS2 (Walker-A KS in Rpt2) (from UniProt P33299;P40327;P33298;P53549;P33297;Q01939;P38764;P32565;O13563) (complex)” had a peptidase stimulation, % of WT base of 10 % WT.

For the substance “recombinant base variant with the Walker-B EQ mutation in all six Rpt subunits (from UniProt P33299;P40327;P33298;P53549;P33297;Q01939;P38764;P32565;O13563) (complex)”, the peptidase stimulation, % of WT base was 110 % WT.

“recombinant base variant NT3 (C-terminal tail of Rpt3 truncated) (from UniProt P33299;P40327;P33298;P53549;P33297;Q01939;P38764;P32565;O13563) (complex)” yielded a peptidase stimulation, % of WT base of 5 % WT.

As to “recombinant base variant EQ5 (Walker-B EQ in Rpt5) (from UniProt P33299;P40327;P33298;P53549;P33297;Q01939;P38764;P32565;O13563) (complex)”, the peptidase stimulation, % of WT base was found to be 118 % WT.

“recombinant base variant KS3 (Walker-A KS in Rpt3) (from UniProt P33299;P40327;P33298;P53549;P33297;Q01939;P38764;P32565;O13563) (complex)”: the peptidase stimulation, % of WT base is 58 % WT.

As to “recombinant base variant NT4 (C-terminal tail of Rpt4 truncated) (from UniProt P33299;P40327;P33298;P53549;P33297;Q01939;P38764;P32565;O13563) (complex)”, the peptidase stimulation, % of WT base amounted to 108 % WT.

As to “recombinant base variant NT2 (C-terminal tail of Rpt2 truncated) (from UniProt P33299;P40327;P33298;P53549;P33297;Q01939;P38764;P32565;O13563) (complex)”, the peptidase stimulation, % of WT base amounted to 10 % WT.

Consider “recombinant base variant EQ4 (Walker-B EQ in Rpt4) (from UniProt P33299;P40327;P33298;P53549;P33297;Q01939;P38764;P32565;O13563) (complex)”, for which the peptidase stimulation, % of WT base amounted to 95 % WT.

In the case of “recombinant base variant YA1 (pore-1 loop YA in Rpt1) (from UniProt P33299;P40327;P33298;P53549;P33297;Q01939;P38764;P32565;O13563) (complex)”, the peptidase stimulation, % of WT base was 84 % WT.

The record behind these values is article PMC3869383.
